Data taken from patent publication US20030078381A1 (VANDERBILT UNIVERSITY, published 2003).

Legend:
[1] = molecular target: T1, IL-22R1/IL-20R2 heterodimeric receptor on co-transfected cells (human, UniProt Q6UXL0 30-311); assay: in situ cell surface AP staining of transfected Cos cells
T1 construct: whole, on cells; Both subunits were co-transfected into Cos-E5, BHK or Ba/F3 cells; also called IL-24 receptor (IL-22R1/IL-20R2)
T1 sequence 1: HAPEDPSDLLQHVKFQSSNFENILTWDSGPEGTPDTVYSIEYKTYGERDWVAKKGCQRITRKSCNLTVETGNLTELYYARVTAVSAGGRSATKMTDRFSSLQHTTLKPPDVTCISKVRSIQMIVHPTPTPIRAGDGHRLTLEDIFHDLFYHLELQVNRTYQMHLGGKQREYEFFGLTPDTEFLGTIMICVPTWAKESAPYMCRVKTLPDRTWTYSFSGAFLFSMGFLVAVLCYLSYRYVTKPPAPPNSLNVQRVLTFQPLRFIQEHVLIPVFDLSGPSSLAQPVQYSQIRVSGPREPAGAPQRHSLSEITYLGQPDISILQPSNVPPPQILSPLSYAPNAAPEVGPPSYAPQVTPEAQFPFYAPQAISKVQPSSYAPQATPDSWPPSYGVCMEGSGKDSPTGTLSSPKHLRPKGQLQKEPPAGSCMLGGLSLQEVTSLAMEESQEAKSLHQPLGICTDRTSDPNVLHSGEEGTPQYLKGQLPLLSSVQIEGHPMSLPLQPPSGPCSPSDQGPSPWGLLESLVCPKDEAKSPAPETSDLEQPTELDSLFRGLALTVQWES
T1 sequence 2: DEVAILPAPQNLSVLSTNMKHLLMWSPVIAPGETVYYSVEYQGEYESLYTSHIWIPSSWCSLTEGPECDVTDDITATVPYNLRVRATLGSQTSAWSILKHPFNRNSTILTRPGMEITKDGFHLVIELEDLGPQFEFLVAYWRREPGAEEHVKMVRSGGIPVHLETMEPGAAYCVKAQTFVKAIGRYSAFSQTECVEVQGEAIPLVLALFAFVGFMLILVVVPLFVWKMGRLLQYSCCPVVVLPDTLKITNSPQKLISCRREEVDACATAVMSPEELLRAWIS
Text: (§1) FIG. 3C illustrates cell surface staining assay for the IL-24 receptor binding. Cos-E5 cells transfected with either the IL-20R1, IL-22R1 and IL20R2 expression vector alone or in pairs were stained for the cell surface-bound IL-24-AP activity and viewed under a light microscope (20× magnification) without phase contrast.
(§2) Based on published data and database searches of GenBank (NCBI), only three R1 and two R2 types of the IL-10 family of receptor subunits can be identified. The three R1 subunits are IL-10R1, IL-20R1 and IL-22R1, whereas the two R2 subunits are IL-20R2 and IL-1OR2, the latter of which is also the second receptor subunit for IL-22. Thus, the IL-24 receptor could be a heterodimer of a combination of the known R1 and R2 receptors. […] The quantitative cell surface binding assays were carried out with Cos cells after transfecting plasmids over-expressing IL-10R2, IL-20R1, IL-22R1 and IL-20R2 individually or in all four R1/R2 combinations (FIG. 3B). […] Using AP staining assays, the quantitative IL-24-AP binding data was confirmed (FIG. 3C). Specific cell surface staining was detected with IL-24-AP when Cos cells were transiently transfected with […] (FIG. 3C).

[2] = molecular target: T2, IL-20 receptor (IL-20R1/IL-20R2) heterodimeric receptor on co-transfected cells (human, UniProt Q6UXL0 30-311); assay: as above
T2 construct: whole, on cells; Both subunits were co-transfected into Cos-E5, BHK or Ba/F3 cells
T2 sequence 1: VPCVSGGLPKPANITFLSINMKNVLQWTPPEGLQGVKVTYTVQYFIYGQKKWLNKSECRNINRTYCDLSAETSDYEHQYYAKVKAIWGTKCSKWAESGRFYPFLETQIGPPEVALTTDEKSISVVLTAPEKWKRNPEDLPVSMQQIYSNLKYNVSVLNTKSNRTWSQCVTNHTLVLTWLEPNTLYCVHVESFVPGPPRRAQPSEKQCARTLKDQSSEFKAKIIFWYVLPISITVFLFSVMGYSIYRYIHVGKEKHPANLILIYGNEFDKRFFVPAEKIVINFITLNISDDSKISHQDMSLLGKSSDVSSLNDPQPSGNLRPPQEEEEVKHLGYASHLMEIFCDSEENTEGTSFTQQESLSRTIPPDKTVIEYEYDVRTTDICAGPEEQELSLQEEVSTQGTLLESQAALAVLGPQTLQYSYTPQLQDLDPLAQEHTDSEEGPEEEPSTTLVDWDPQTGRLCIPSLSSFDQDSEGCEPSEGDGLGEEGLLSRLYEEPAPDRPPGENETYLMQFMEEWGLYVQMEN
T2 sequence 2: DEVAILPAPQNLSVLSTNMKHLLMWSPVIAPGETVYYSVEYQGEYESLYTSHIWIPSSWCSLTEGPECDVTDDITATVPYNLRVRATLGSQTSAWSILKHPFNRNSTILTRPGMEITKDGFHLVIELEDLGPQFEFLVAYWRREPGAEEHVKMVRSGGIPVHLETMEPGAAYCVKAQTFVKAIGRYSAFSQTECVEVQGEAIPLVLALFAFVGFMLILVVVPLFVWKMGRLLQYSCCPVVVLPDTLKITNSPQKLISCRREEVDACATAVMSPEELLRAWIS
Text: as §1, §2

[3] = molecular target: T3, human IL-22R1, expressed alone on transfected cells (human, UniProt Q8N6P7 16-574); assay: quantitative cell surface AP binding assay on transfected Cos cells
T3 sequence: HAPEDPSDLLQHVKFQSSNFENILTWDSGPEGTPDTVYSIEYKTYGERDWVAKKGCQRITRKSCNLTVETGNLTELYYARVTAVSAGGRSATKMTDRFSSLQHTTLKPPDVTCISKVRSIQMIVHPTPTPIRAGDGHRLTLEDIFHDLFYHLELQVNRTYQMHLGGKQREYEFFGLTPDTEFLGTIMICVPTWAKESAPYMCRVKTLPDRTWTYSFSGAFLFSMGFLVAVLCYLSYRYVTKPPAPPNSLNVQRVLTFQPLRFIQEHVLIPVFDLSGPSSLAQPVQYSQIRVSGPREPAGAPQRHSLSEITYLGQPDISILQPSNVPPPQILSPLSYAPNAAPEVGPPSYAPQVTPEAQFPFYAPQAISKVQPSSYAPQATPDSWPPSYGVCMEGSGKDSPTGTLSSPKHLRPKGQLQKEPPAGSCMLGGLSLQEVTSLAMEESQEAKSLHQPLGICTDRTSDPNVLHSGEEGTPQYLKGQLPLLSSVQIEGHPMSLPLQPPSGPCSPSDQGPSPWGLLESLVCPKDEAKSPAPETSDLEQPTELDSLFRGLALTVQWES

[4] = molecular target: T4, human IL-20R1, expressed alone on transfected cells (human, UniProt Q9UHF4 30-553); assay: as above
T4 sequence: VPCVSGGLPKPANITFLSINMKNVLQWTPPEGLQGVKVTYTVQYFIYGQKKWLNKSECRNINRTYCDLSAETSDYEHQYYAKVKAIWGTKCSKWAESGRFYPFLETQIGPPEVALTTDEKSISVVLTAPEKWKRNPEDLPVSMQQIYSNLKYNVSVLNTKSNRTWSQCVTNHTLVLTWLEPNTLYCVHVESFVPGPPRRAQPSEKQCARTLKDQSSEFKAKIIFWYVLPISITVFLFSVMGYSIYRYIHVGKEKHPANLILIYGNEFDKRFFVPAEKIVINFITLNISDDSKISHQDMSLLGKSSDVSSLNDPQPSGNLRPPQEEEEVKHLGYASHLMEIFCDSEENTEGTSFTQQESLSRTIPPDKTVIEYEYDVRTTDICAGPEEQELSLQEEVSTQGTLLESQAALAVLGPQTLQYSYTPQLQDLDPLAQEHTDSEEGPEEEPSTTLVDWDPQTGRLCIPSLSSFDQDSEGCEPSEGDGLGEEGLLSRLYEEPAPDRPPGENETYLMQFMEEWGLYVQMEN

[5] = molecular target: T5, secreted human placental alkaline phosphatase (AP) (human, UniProt P05187 23-511); assay: as above
T5 construct: Control probe, used as conditioned medium; also called AP control
T5 sequence (P05187 23-511): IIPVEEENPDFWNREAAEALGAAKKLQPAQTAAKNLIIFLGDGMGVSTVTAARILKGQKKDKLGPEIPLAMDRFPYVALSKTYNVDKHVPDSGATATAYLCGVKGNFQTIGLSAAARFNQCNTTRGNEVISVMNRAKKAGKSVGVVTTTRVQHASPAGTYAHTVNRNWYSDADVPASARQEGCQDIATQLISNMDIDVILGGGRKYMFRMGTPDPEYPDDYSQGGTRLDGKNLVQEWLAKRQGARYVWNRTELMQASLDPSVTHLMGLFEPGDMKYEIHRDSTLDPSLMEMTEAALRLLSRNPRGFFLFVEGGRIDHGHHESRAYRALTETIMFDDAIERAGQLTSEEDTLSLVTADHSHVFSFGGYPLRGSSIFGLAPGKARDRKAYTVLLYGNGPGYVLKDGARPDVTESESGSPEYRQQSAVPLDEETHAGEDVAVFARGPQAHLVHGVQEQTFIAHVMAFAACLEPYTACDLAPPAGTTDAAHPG

B1: human IL-24-AP fusion protein (ligand, UniProt Q13007 52-206, looked up)
chain: QEFHFGPCQVKGVVPQKLWEAFWAVKDTMQAQDNITSARLLQQEVLQNVSDAESCYLVHTLLEFYLKTVFKNYHNRTVEVRTLKSFSTLANNFVLIVSQLQPSQENEMFSIRDSAHRRFLLFRRAFKQLDVEAALTKALGEVDILLTWMQKFYKL
notes: Used as conditioned medium; also called Mob-5-alkaline phosphatase fusion protein; not shown: secreted human placental alkaline phosphatase (AP)
binding result [1]: binds
binding result [2]: binds
binding result [3]: no binding
binding result [4]: no binding

B2: human IL-20R2, expressed alone on transfected cells (receptor, UniProt Q6UXL0 30-311, looked up)
chain: DEVAILPAPQNLSVLSTNMKHLLMWSPVIAPGETVYYSVEYQGEYESLYTSHIWIPSSWCSLTEGPECDVTDDITATVPYNLRVRATLGSQTSAWSILKHPFNRNSTILTRPGMEITKDGFHLVIELEDLGPQFEFLVAYWRREPGAEEHVKMVRSGGIPVHLETMEPGAAYCVKAQTFVKAIGRYSAFSQTECVEVQGEAIPLVLALFAFVGFMLILVVVPLFVWKMGRLLQYSCCPVVVLPDTLKITNSPQKLISCRREEVDACATAVMSPEELLRAWIS
notes: whole, on cells
binding result [5]: no binding
